The target of assay [1] is T1, human 5T4ECDHis (mature protein of SEQ ID NO: 99) (human, UniProt Q13641 32-355).
T1 construct: ECD of human 5T4 (aa 1-355 of Uniprot Q13641) with C-terminal His tag; residues 1-31 are the signal peptide; also called ECD of human 5T4 with a C-terminal His tag
T1 sequence: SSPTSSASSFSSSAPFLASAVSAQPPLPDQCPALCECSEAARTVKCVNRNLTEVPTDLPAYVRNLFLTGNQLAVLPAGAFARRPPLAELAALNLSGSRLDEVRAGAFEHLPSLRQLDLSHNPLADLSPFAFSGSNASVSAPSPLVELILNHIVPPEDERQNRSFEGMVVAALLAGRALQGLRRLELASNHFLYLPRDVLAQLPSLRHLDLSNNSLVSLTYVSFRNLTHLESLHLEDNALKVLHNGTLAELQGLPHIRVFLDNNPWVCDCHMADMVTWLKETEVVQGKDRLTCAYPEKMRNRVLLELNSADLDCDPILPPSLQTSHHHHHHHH
Description: BLI cross-block; competitor (immobilised): IgG1-5T4-H8-FEAR.

For assay [2], the target named is T1, human 5T4ECDHis (mature protein of SEQ …). Description: BLI cross-block; competitor (immobilised): IgG1-5T4-207-FEAR.
The target is the same in assay [3]. As to the kind of experiment: BLI cross-block; competitor (immobilised): IgG1-5T4-085-FEAR.
Assay [4] shares this target. As to the kind of experiment: BLI cross-block; competitor (immobilised): IgG1-5T4-106-FEAR.
Assay [5] shares this target. As to the kind of experiment: BLI cross-block; competitor (immobilised): IgG1-5T4-127-FEAR.
Assay [6] shares this target. As to the kind of experiment: BLI cross-block; competitor (immobilised): IgG1-5T4-A1-F405L.
The target is the same in assay [7]. Description: BLI cross-block; competitor (immobilised): IgG1-5T4-226-FEAR.
The target is the same in assay [8]. As to the kind of experiment: BLI, antibody on anti-human IgG Fc Capture biosensor, antigen in solution. Background: In BLI a coated tip is dipped into the sample, and binding shifts an interference pattern.
The target is the same in assay [9]. As to the kind of experiment: BLI cross-block; competitor (immobilised): IgG1-5T4-059-FEAR.
The target is the same in assay [10]. Description: BLI cross-block; competitor (immobilised): IgG1-5T4-076-FEAR.
Assay [11] concerns the target T2, recombinant cynomolgus monkey 5T4 protein (Cusabio; cat. no. CSB-MP024093MOV) (cynomolgus monkey, UniProt Q4R8Y9 35-355).
T2 construct: extracellular domain; Bought protein; also called cynomolgus 5T4; cynomolgus monkey 5T4 extracellular domain
T2 sequence (looked up): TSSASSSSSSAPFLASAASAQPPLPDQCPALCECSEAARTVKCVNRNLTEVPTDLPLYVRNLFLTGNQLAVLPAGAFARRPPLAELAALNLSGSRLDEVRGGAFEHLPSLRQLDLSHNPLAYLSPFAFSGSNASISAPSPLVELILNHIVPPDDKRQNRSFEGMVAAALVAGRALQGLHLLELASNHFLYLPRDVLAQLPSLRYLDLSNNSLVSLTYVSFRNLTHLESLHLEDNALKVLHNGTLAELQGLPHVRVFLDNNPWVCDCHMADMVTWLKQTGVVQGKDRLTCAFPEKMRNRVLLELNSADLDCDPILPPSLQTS
Description: BLI, antibody on anti-human IgG Fc Capture biosensor, antigen in solution.

Assay [12] addresses T3, full length chicken 5T4 (SEQ ID NO: 3) on transfected HEK-293 cells (chicken).
T3 construct: Uniprot R4GM46; residues 1-27 are the signal peptide
T3 chain: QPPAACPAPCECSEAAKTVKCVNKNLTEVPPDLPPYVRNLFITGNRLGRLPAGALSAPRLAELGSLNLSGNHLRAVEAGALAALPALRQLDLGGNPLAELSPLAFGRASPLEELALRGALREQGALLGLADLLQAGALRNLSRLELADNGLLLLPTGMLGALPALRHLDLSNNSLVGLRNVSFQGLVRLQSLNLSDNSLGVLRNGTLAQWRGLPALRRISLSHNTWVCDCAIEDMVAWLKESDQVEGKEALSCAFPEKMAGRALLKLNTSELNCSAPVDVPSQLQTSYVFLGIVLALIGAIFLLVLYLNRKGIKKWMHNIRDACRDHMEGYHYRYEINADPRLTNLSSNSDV
As to the kind of experiment: flow cytometry, HEK-293 cells transfected with chicken 5T4, PE secondary. Background: A flow cytometer gives signals particle by particle.

The target of assay [13] is T4, full length cynomolgus monkey 5T4 on transfected HEK-293 cells (cynomolgus monkey, UniProt Q4R8Y9 35-420).
T4 construct: Uniprot Q4R8Y9; residues 1-34 are the signal peptide; also called cynomolgus 5T4
T4 sequence: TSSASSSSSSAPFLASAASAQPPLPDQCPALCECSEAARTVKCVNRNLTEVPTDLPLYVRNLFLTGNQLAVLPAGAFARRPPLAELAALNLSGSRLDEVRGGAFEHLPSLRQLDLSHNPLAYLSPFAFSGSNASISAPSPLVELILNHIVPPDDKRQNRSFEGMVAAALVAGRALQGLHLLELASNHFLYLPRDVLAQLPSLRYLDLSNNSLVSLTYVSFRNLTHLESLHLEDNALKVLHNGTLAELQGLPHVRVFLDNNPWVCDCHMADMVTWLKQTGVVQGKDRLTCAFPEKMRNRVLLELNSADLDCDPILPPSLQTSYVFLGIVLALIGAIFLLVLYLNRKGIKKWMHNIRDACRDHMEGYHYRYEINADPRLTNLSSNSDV
Description: flow cytometry, HEK-293 cells transfected with cynomolgus monkey 5T4, FITC secondary [I)B].

B1: IgG1-5T4-207-FEAR (antibody, V domains shown)
VH: QVQLQQWGAGLLKPSETLSLTCAVYGGSFSGYYWTWIRQPPGKGLEWIGEIDHSESTNYNPSLKSRVTISVDTSKNQFSLKLSSVTAADTAVYYCAGWFGELYHYYYGMDVWGQGTTVTVSS
VL: EIVLTQSPATLSLSPGERATLSCRASQSVSSYLAWYQQKPGQAPRLLIYDASNRATGIPARFSGSGSGTDFTLTISSLEPEDFAVYYCQQRSNWPLTFGGGTKVEIKR
notes: Monospecific, bivalent IgG1 FEAR
The term Kd denotes the concentration at which binding is half-saturated. The koff is the rate constant with which the complex falls apart. By kon is commonly meant the second-order rate constant of association. B1: the corrected association response in assay [1] was -0.01 nm; in assay [2] it was -0.02 nm; in [3], 0.08 nm; in [4], -0.03 nm; in assay [5] it was 0.16 nm; in [6] it was 0.86 nm. Further, the figures for the corrected association response in [7], in assay [9] and in [10] were -0.02 nm, 0.02 nm and 0.05 nm, respectively. The Kd is 2.6 nM in [8] and 6.3 nM in assay [11]. Further, the off-rate constant (koff) is 0.00068 s⁻¹ in assay [8] and 0.00087 s⁻¹ in [11]. Further, the kon in [8] is 270000 M⁻¹ s⁻¹; in [11], 140000 M⁻¹ s⁻¹. Further, in [12], the binding result was “binds”.

B2: IgG1-5T4-226-FEAR (antibody, V domains shown)
VH: QVQLQQWGAGLLKPSETLSLTCAVYGGSFSGYYWSWIRQPPGKGLEWIGEIDHSGSTNYNPSLKSRVTISVDTSKNQFSLKLSSVTAADTAVYYCAAWFGELWDYYYGMDVWGQGTTVTVSS
VL: EIVLTQSPATLSLSPGERATLSCRASQSVSSFLAWYQQKPGQAPRLLIYDASNRATGIPARFSGSGSGTDFTLTISSLEPEDFAVYYCQQRSNWPLTFGQGTRLEIK
notes: Monospecific, bivalent human IgG1 kappa with L234F, L235E, D265A, K409R (FEAR); also called IgG1-5T4-226-FEAR-FITC
The EC50 (read off the curve) is the concentration that produces a half-maximal response. Turning to B2, the corrected association response is -0.01 nm in assay [1]; -0.02 nm in [2]; 0.07 nm in assay [3]; -0.02 nm in assay [4]; 0.16 nm in assay [5]; 0.86 nm in assay [6]. The results for the corrected association response in [7], in assay [9] and in [10] were -0.02 nm, 0.01 nm and 0.05 nm, respectively. Also, the values for the Kd in assay [8] and in [11] were 2.5 nM and 11 nM, respectively. The values for the koff in assay [8] and in assay [11] were 0.00081 s⁻¹ and 0.0015 s⁻¹, respectively. Further, the kon in assay [8] stood at 330000 M⁻¹ s⁻¹; in [11] it was 140000 M⁻¹ s⁻¹. Also, in assay [13], the “EC50 (read off the curve)” value was around 0.08 µg/mL. Also, in assay [12], the binding result is listed as “binds”.

The record behind these values is patent US20230257479A1 (Genmab, published 2023).
